In patent US20200157198A1 (POPULAS BIOPHARMACEUTICAL WUHAN, published 2020):

B1: 5A2F9-4 antibody (antibody, V domains shown)
VH: QVQLQQPGAELVKPGASVKLSCKASGYTFTSYWMHWVKQRPGQGLEWIGEINPRNGRINQNEKFKSKATLTVAKSSSTAYMQLSSLTSEDSAVYYCSRGGGSSAEGGYWGQGTTLTVSS
VL: DVLMTQTPLSLPVSLGDQASISCRSSQSIVHSNGNTYLDWYLQKPGQSPKLLIYKVFNRLSGVPDRFSGSGSGTDFTLKISRVEAEDLGVYYCFQGSHVPLTFGAGTKLELQ
notes: Mouse hybridoma monoclonal antibody

Columns and labels:
[1] = target: polypeptide C8079BB030-1 (…); assay: indirect ELISA on coated peptide (1 ug/ml); unimmunized serum 1:1,000; column No. 1956
[2] = target: polypeptide C8079BB030-1 (…); assay: indirect ELISA on coated peptide (1 ug/ml); unimmunized serum 1:1,000; column No. 1957
[3] = target: polypeptide C8079BB030-1 (…); assay: indirect ELISA on coated peptide (1 ug/ml); unimmunized serum 1:1,000; column No. 1954
[4] = target: polypeptide C8079BB030-1 (…); assay: indirect ELISA on coated peptide (1 ug/ml); unimmunized serum 1:1,000; column No. 1958
[5] = target: polypeptide C8079BB030-1 (…); assay: indirect ELISA on coated peptide (1 ug/ml); unimmunized serum 1:1,000; column No. 1955
[6] = target: T1, HA-tagged human Nav1.9 expressed in ND7/23 cells (human, UniProt Q9UI33 1-1791, limits assumed); assay: Western blot of lysate of ND7/23 cells transfected with HA-hNav1.9; antibody 1:300
T1 construct: Assayed as SDS-PAGE-separated lysate of transfected ND7/23 cells (Western blot); also called HA-hNav1.9; human Nav1.9-HA; not shown: HA tag
T1 sequence (Q9UI33 whole entry): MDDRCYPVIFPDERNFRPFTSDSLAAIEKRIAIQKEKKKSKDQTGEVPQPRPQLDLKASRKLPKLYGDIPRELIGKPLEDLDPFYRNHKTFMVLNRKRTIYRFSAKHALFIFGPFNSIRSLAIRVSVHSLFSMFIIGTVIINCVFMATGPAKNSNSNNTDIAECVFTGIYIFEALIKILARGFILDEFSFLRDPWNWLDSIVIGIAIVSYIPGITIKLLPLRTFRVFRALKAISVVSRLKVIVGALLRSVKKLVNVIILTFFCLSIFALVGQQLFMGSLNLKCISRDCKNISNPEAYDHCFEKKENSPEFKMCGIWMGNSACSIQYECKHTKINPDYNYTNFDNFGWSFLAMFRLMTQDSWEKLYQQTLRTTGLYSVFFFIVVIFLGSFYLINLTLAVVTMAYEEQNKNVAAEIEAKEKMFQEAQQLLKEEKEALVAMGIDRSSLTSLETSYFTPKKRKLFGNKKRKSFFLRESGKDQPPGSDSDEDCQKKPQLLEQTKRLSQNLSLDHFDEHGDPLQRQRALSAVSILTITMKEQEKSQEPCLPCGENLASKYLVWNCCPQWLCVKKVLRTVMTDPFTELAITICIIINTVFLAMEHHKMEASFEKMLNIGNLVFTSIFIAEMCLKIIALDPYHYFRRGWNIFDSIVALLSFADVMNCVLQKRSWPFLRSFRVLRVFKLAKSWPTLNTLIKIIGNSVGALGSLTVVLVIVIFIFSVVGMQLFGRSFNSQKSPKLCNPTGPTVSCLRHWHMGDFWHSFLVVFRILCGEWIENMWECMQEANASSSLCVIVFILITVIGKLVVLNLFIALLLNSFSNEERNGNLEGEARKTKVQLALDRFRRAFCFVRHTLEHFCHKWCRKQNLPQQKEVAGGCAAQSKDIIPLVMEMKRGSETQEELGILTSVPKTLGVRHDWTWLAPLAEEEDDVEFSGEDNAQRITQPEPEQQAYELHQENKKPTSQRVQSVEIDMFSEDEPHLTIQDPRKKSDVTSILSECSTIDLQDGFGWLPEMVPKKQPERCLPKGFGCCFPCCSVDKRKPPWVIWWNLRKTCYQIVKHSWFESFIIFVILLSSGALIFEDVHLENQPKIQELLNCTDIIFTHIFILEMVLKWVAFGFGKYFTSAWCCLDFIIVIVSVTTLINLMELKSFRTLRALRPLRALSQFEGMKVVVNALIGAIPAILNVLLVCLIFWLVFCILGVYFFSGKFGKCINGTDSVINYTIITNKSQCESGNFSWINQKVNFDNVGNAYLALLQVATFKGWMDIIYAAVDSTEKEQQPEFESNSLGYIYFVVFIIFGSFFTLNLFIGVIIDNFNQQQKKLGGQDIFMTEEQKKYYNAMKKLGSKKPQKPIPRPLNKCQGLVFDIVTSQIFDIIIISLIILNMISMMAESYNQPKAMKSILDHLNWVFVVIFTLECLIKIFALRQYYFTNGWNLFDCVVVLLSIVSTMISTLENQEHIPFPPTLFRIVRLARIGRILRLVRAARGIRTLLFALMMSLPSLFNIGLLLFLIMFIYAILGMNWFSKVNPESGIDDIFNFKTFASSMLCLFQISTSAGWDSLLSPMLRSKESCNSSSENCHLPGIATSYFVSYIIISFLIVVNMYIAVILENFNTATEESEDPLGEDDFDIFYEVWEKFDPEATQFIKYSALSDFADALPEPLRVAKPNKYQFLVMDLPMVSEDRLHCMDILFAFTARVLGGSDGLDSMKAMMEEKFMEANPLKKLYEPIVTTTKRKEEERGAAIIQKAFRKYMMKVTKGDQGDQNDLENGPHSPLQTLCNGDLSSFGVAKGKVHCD
Procedure: 4. The cell lysate was centrifuged at 12000 rpm for 10 minutes at 4° C. to collect the cell lysis supernatant.
6. After […], the cells were incubated with HA tag (1:2000) antibody and 5A2F9-4 (1:300) antibody for 1 hour at room temperature.
8. A digoxigenin-labeled anti-mouse antibody (1:20000) was added and incubated for 1 hour at room temperature;

Molecule | OD value (450 nm) [1] | OD value (450 nm) [2] | OD value (450 nm) [3] | OD value (450 nm) [4] | OD value (450 nm) [5] | binding result [6]
negative control of unimmunized serum | 0.086 OD450 | 0.088 OD450 | 0.072 OD450 | 0.104 OD450 | 0.066 OD450 | 
B1 |  |  |  |  |  | binds
